According to the DeepSol protein solubility set:

Assay: soluble on expression in E. coli; label from the status in PepcDB or PDB records

| Sequence | soluble on expression in E. coli |
| --- | --- |
| MAHHHHHHGSRFLIRLVPEDKDRAFKVPYNHQYYLQGLIYNAIKSSNPKLATYLHEVKGPKLFTYSLFMAEKREHPKGLPYFLGYKKGFFYFSTCVPEIAEALVNGLLMNPEVRLWDERFYLHEIKVLREPKKFNGSTFVTLSPIAVTVVRKGKSYDVPPMEKEFYSIIKDDLQDKYVMAYGDKPPSEFEMEVLIAKPKRFRIKPGIYQTAWHLVFRAYGNDDLLKVGYEVGFGEKNSLGFGMVKVEGNKTTKEAEEQEKITFNSREELKTGV | soluble |
| MAHHHHHHMAAVTPPTSRALPLEATAIFPPQGSRELDRGAPPLESLSCTKRATAAQHIRGGEGRGAAPCLYIQTVSGSLLPVVLSPSPTHSPIPQRCEQYRDAYANVTICIDTEERSIQRLETFGGGTTITAILCKRYFPPFQ | not soluble |
| MAHHHHHHMADAADTLLLSLEVEAAAARNAELSQTIEMLQDEVLRLRRANASLLACDARHCPKVSLQPVETPSATADVSRDESSAAADAREVFVILDDLLFEMADIRSRIILDERVDLTPRAFDSEATVAAHARRCLEEARKLKEAFVVKQHSTAAQVSELRRALGEQAEANQKQTAASALQCAMLERKYDELKRRYDEAVSRQDELVLDGVIQSPSQMLPRS | soluble |
| MAHHHHHHMADGAAMSLSGQRIPLLKPTLSKWSRQLRSDIYDELLKLPLRYALHDFRTLQAHIHAVPATATNASCTAAAGERLPPGVYHASSGLSSASPDAPAYYAVAGRDSAVGYAPPLGPADPVDVIPFFVHRSSNGHLPGKVYSMNAKTLMPAFYMRIQNIEGDMFRFEEELMKIFPTKKIFVRSHSVYVYNVNLDGRAVLHHWLLGLGF | soluble |
| MAHHHHHHMAEEGSGLHQFWNTQPVPQSSIDAADTVGPLEAAGTVDDVPTDPVAIASTLEWWSPDMDNKDDVRAIYELLRDNYVEDVESMFRFNYSEDFLRWALTPPGYHSSWHVAVRRKRDQMLMGFVSGIPVTMRMGAPKKVLQKNKTTEEKEQGPEEKNNDHKSQAEELYLEPRKICEINFLCVHKLLRAKRLAPILIKEVTRRVHLMNIWQAVYTAGRLLPTPFATADYYHRSLNPEKLVAVGFSAIPQQYQKFQNPLSMIKRFYELPAKPKTRGLRPMEPKDAPQVANLLRKKLATCDVAPVFTDEEVAHYTLPREGVLMSYVVEREVSGGGGGGRVDSSRGKQNDAGTQKQITDFFSFFSLPSSIIGSSKHSVLNAAYVFYSANTTISLVHLMSDLLIVAHQQGFDVCNVVNIMDNGDYLSELKFGRGDGNLHYYFYNWSYPIVQPSDVGLFML | not soluble |
| MAHHHHHHMAISATGTLAVLKVYQLTDAAARLSRAEVDAALEELMGLRVNDSLVQYLSYCYVPPHRVVLVMQYVPGGTLREMKSRYGRKLPLTAVRRNVASMLRGLAHLHGRGVIHGRLCPENVMVGVEGRWRLKGMLLGAAPLIMHQETYYVSPEVAAGGAKTAANDVYALGLLLLAMLTDSHPWQWSANAALDRSRKELDSLLADSTAFREALRNGLLTPVPTPADTDETLRTVLEACLRTAPGDRPTALRLQELRCDRTS | not soluble |
| MAHHHHHHMANYQQQYTNAEYTLPNFFETASTVAKVLTPGGRTPTVLAVDVSGQPLLPPPPPESDFAVPEPGQLEKLLCAYVGPSHTLGLSPKQLFDEEIRARNLEMEERKKEMRAITEQYERELRECMMESEQRSVVEDARRAIDLADREALEERKRPLRMYLNHNIIPLLSKGLVEVCKRRPVDPVDFLAEWLMLHNPHDDSCFEL | not soluble |
| MAHHHHHHMCAPLYVSPAVQELAQLNSEAERLMLKRAWCVHTKAHLLRELPWAARDVAAYRVALREALQSFTESQQDAFLIDVVYAQFVCAEGGVLRACVQHALFLDLTYDVRLQQWTLVPLHWNIFTTSAGALLLTLQSVLAGPHAQTPCTPPAAPATAARAPLIAHSRAHGTVDSASPLPEASTPASFVRVDPHDREALHRFMRLAFEQEGLSGELHASNRLVCAVVMDTFAIQLQSLQQSFFTGGGLGRLVEMEVRPGTLISFHLSLPELFVPSAPVAHVKMTVAGGTVMLECVRGTDLSTRRVTLPLGTSSLVASGAVGVNTATWKSSMTVVDMEALLWQCVCASAPS | not soluble |
| MAHHHHHHMCAWNSAIHAYPTAIAPMLVRRPCHAAMNAYTAVASCATALRLSRSHLHAHMLLLLVLTRQRCNLFTLRSDTFLKAVVQMLFSPALLSTLRSAAGVSARSAPPALRQRVAAIA | not soluble |
| MAHHHHHHMCYDCATSSSLVTTILNGMHVFNLDERFYGANLAAGLSASNVESYPYHTIGEEPLMSSCFFNAGQLFAVGSSCGSVTVVSRRSRALTSCYATPDSFPIRSLSEIPAQPNCLLTCTEQGAAIVDVERSQLRMSLANPAAGRAVAAVPLQLHTFVVANYDGKVLLYDTRYRSSPSSVLSLPDQITCLAVSRDTPEVCVGTVGGRVFTLRCAEGPQREQAFGMSNRRSPVRCVAMDNGRIAAGDLAGRLALIDTADVPDPTVYWSAETLLRLPRPSGRARHA | not soluble |
| MAHHHHHHMDKKRSIVKKPERGSFLLDHNSECTPIKNDYLKCLKEHNNDHVSCREYSKEYFICRMDKNLLERQSLNDLGFSENETNHESRIKHFKDVYSYNVYNETMESFPKGRALKRTDTASGAVFVEEKLTQGKRDNKADMKPARGDDFLLLNLRNDKEGEQKINGKVFEITQEKKIAVKRKEEEGYLAGKEYIKTLVEKKKRHPLFSYNIFKSSNT | soluble |
| MAHHHHHHMDLFSIASNLQQIAIGGVNFVNSKLRKKSATAECNYITYIVIGENEKQPYDTNIFFLPFKICGKIKLEEFKEFFPFKDNVIFRFKIPVSDLIDVINEGIVNHAPLMREDSNERNQVKHIISDENEIKNILRQDQFSHLWVDITSEEAYIPFYNGNIVVKVLFI | not soluble |
| MAHHHHHHMDNSIKIKSAFLKENVGVKITGPCDEGFGLVMVPHIIINVDTRNTDIQLGKKSSEINYGIKLRKKGKDEYEEKVGIDLLKNVCETGKNFKFVAYIKGDELIIKWKVIEEGNIPIDIKKFKIKRMSPPITSIQVFSSMSDEKSFVLENKNYVVTNNMPEKCEALATNCFLSGNIDIEKCYQCSLLVENDSKSDVCYNFISRENKEKLNEERFKVKGSTEYEESVESELKGAIDLLISSFYKSDGENGENVLISFEDLNSTLEDDIINFCSLLKLVDLSGTFMNHQIGTTADAFNNIVKLLKEHKEEDEFVLRTKLRNPALCMKNVDDWVKSRCGLLTSDDSYVVIKKNSDTNGKNENNESNDEEYDGVIDLSTNENGNVKSIQFNDDIYCNDDYCNRWKNENNCISKIGVEDQGNCASSWAFASKLHFETLRCMKGYDHLGISALYLTNCSKGKISKRCTEGGNPSEFLEIVSNSGFLPTEFDYPYFYALVENSCPSGLNKWINLWEDVKLFDYKYEPNSIGSKGYSVYKSEMFKDNMDEYVKMIKSEIKNKGSVIAYINAQSVLTYDFNGKNILNMCGSKTTDHSINVIGYGHYKNKEGEEKSYWLVRNSWGYYWGDEGNFKVDMYGPSNCNYHFINTVLVFNIDIPMMNNNENNKKGLYNYFPKYTHEFYHNFYDQNFGSDNKISLINSNGSNKNDVNNAYTVHGQSGETEVQPSQLRSTANQDSNRGAVTSDPLRTQPETTSTSVKKMDVFQVLKHVKNSKIKVGLIKYDNDDEIGAHHSCTRAYSFDPEKYDECVEFCRKNWEQCKDKPSPGFCLTKLDESKGCFFCYV | not soluble |
| MAHHHHHHMDPLLLGTSAGLERNCTVLFSHLTALCGTKPAGEPHNPLQVHLRVDDGHRDTALQHIKVLYDVAVRHNPRTSVTVVPLAPLEYYETPNRNTNSREGHKLPLFTASLMTPNCGFNPVYKGVAVGGTFDRLHGGHKLLLTTALLHATQVLRIGVTVSTMLTTKIHADLIEPFEVRCAAVTKFAHLLRPDLGLEVAGIADRAGGADSDPSLEALVVSPETVGALPSINTARLSVGLKPLECVLVPYVGVCDDEESRVSSTNIRKRLCELST | soluble |
| MAHHHHHHMDSEKNSPLEYQETMNDLGEDIEDMEAQSINHGEAKMSVDIKSGKGDKGGEEVDVADAENVESNADNALYIYSTDSAKNILKENLEDYLKQLDFYKSNPKCKIDPAIYMEGTEEVENYVVKEKILITTYYQYIDMYESSIDVEEDLEREEIVYVEVPKYIIKYNPKVITNYIEKTIEVPSGEEIKRPVYKKLNVPYVVPHVVENETQVVLKKIVQPEIHTSNEEIEVEVQKYVPRLVPVNVYVPRYFGLSAKTTDEVEESVHYADLTQEQTDYLMKELNPHLDDLKKFNEEQLERMNEYIRESAQQAESHDLNPPKPELVSYDLDGSIQTLDYSDFTQFKEICQRELTC | soluble |
| MAHHHHHHMDVEERTRRCSSLGLAVRNLPRDTASSFVHKFFEDHVGCVQEVMMHSSRPNQSRNIAAPNTNGVDQGKRGNDDNDPPASFGLSGRRDGNSSSGIAVKTCSNDADGNTLCLVFFSAAECVRLAKLLYMRRPELFNVLGVVDGKELRLTIPSKLIRLSRTAHAHCDDGDNTRSKKSSQGEEDTPKGDAEKNDAGT | not soluble |
| MAHHHHHHMEEAKIEAALHICNLLPAHVFEETIKLLSKVDQNLTNNILINKEGPIKIKFDSQQNKHYLGNMFNKEKDSYRSPYSNRYYPEHYPNGYIPSESLRMLEMLYNEMYDRYRKAYYIGGLSSVYLWPNPIEEGFVACFLIKKKENYDPCTSLTWEGTHLIQVSITHARVYYQISTTVNFFIKKKNEMTLSASINKALETPKKVSNVNLVKDKYFHMHNMGKMIEGIENSLRKSIEYIYLPKMNDILNSIRMDDSFASAWHNADRKAAQNLRTISSNIALSRGSVQDELRLKLKGRSFDAGAEYSLRT | not soluble |
| MAHHHHHHMEFNRSQAAGNGKYVELFAQSYSGPVPKPLPPCTEPTPDEQYRQLMEEKKNEIGEREQRHAENTAGASGSNVDSSNVVGLFSNAATKLRNVAQQVTLKIERASTEVSSATGAAVRQVERQLNVDRFLSNFPELGAMGEILLADYACTAINGGQRVSGHMHITKNYLCFSAPGSSVINQLATAVLKESGVGSDNNPVLGIRQIIPLTEIACILLSVALETVDHRPPFFLPLPASYVRPTGLQIYTTKQQLFQFLAFESIAAKAGSVFTDAVKGLPIQRAYNYLDHAWRASTSVPLPGVNYAS | not soluble |
| MAHHHHHHMEGDISSSAFVCGFTAHRAHPLSPISDIRDLCVPRTSTPSASSHALAQALSFPRRPLPHRLLASCLLITTTNRFQAHCSRSAATQPPPPLPCGTTTEREYGWDGLAVFLSADSRVFRSPFSTIVSRFSPFVAAMSDRDVPASMTRTCAPPKAHFLFCSTDARNAAPASNGDVAKLPAPKKPISAPLTPFQSPVDTHRDRHSSRHASPPRQLGRPLPPTQPSFSDVAKRMGSFNDMCEANSLLSSHVRLGEMSTLGISASTSTIPAGSSGSTTSLHWLRIAEDRVMPHPSSTKPAPAALQRNAEYVLERWVEQKVHRTAAMDDAMMKVAAAFDELYA | soluble |
| MAHHHHHHMEGKKCFYITEKGKKQNFRNIKLITFDLDHTIWNIDGLLNYADKECYEYMKKNYRRLYDYLQEEYQLSITNLVKQLLENKIEDNNDGVQTLTNMRIDALKFLAKKTNYDEGKFVSEIQELWKEKKNDVHLFISPGTLEYLRELKRRGYTLGAITNGDSDVNGIKFLNEIFTFVIRSMDYNHSKPSVEIFNIAENILKKKNFHFEIHQWMHVGDDVYTDIMGAKNKNINCAWITMFRDGSEVPPNDWYPYLKLKLEENGDSHLSQYDPFADGLFSRFRRRDVVLPYEYIDIEIRHCRDLDAILA | soluble |
